Test results taken from article PMC11390681.

Tested on: F4 (K88) fimbriae on intact ETEC strain SP11 cells (Escherichia coli (ETEC-F4+, strain SP11))
Assay: whole-cell binding with qPCR quantification of eluted aptamer
Settings: 138 mM NaCl, 20 mM Tris-HCl pH 7.4, 2.7 mM KCl, 1 mM CaCl2, 0.5 mM MgCl2, 0.1 mg/mL salmon sperm DNA, 30 min at 37 C, 500 rpm, washes with 0.05% Tween 20

Row | Sequence | Kd (intact SP11 cells, about 10^8 CFU/mL, 1 mM CaCl2, 0.5 mM MgCl2) [nM] | Kd [nM]
1 | CGTACGGTCGACGCTAGCACACTCTTTTGCTCGTGTTTTTGCCTGTTACATAAAATGAATCAGTGGATGTTTCCTTCTCACGTGGAGCTCGGATCC [Apt31] | 81.8 | 
2 | CGTACGGTCGACGCTAGCGGAGACCGTACCATCTGTTCGTGGAAGCGCTTTGCTCGTCCATTAGCCTTGTGCTCGTGCCACGTGGAGCTCGGATCC [Apt37] |  | 50.8
